Test results as given in patent publication US20240424127A1 (BRIGHT PEAK THERAPEUTICS, published 2024).
Where a chain is given by its changes, count along the chain named. Names may count otherwise. Where two headings read alike, the source gives them in different places. Bridges are numbered along the chain shown (N, C = ends). [ ]: non-standard residue; d: D form. glutaryl‑PEG9‑azide = glutaryl-PEG9-azide group on the N-terminal amine; hSer = N[C@@H](CCO)C(=O)O; Nle = CCCC[C@H](N)C(=O)O

Experiments:
[1] = biological target: T1, IL-7 receptor (IL-7Rα/γc heterodimer) on primary human T cells (human, UniProt P16871 21-459; P31785 23-369); assay: cell-based or functional assay
T1 sequence (looked up) 1: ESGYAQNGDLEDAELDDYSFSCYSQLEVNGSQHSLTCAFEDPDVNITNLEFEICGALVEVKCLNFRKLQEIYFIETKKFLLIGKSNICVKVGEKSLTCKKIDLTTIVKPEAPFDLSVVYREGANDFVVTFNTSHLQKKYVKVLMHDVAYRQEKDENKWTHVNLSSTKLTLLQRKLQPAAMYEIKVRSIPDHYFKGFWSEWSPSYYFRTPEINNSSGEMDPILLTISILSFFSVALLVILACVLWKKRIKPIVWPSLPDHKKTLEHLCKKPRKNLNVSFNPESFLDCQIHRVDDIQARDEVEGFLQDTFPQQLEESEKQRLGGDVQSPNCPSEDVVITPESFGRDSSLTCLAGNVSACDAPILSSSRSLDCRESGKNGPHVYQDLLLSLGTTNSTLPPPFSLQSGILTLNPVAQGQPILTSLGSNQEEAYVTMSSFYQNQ
T1 sequence (looked up) 2: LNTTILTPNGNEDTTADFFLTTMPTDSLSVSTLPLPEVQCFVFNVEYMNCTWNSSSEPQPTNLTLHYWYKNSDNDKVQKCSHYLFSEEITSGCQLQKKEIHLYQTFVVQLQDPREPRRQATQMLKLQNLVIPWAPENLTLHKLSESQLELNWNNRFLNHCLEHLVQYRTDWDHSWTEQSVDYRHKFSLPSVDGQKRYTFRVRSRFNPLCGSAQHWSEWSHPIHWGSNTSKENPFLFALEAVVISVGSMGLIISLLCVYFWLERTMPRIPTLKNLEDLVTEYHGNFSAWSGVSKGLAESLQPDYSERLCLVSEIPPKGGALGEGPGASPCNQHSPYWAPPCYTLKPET

[2] = biological target: T2, Recombinant Human IL-7R alpha/CD127 Fc Avi-tag Protein, CF (R&D Systems #AVI10317-050) (human, UniProt P16871 21-239); assay: BLI (Octet R8); CD127-Fc-Avi loaded on SAX2 sensor, IL-7 polypeptide as analyte
T2 construct: Bought construct; It was loaded on streptavidin (SAX/SAX2) biosensors; not shown: Fc and Avi-tag of a bought protein
T2 sequence (looked up): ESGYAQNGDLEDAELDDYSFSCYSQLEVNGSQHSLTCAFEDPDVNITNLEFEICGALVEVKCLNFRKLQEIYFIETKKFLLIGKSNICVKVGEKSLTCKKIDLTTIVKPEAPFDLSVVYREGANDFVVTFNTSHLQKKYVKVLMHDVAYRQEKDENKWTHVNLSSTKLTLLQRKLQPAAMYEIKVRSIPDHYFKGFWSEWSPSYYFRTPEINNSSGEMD

[3] = biological target: T2, Recombinant Human IL-7R alpha/CD127 Fc …; assay: as above; remark: listed apart in the source
[4] = biological target: T2, Recombinant Human IL-7R alpha/CD127 Fc …; assay: as above; remark: listed apart in the source
[5] = biological target: T2, Recombinant Human IL-7R alpha/CD127 Fc …; assay: as above; remark: listed apart in the source
[6] = biological target: T3, Biotinylated Recombinant Human PD-1 (CD279)-Fc Chimera (carrier-free), Biolegend #789406 (human, UniProt Q15116 25-167, biotinylated); assay: Direct huPD1 ELISA: antibody coated on the plate, serial dilution of biotinylated human PD-1-Fc (x axis 'Biotin PD1 (nM)'), signal at 450 nm
T3 construct: Bought PD-1-Fc; also called h-PD1 Fc; not shown: Fc part of a bought chimera
T3 sequence (Q15116 25-167, change not shown): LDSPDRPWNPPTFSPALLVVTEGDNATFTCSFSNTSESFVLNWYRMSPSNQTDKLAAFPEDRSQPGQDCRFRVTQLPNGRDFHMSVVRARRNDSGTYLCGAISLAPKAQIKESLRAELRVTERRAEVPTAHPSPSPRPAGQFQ

[7] = biological target: T3, Biotinylated Recombinant Human PD-1 …; assay: ELISA: antibody coated on the plate, serial dilution of biotinylated human PD-1-Fc, streptavidin-HRP, OD 450 nm (x axis printed as 'Molecule (nM)')
Method: (§1) Each of these variant conjugates and unmodified antibodies are assayed by ELISA for their ability to bind to human PD-1 according to the following protocol.
(§2) Streptavidin-HRP is Sigma #RABHRP3. TMB solution is 3,3′,5,5′-Tetramethylbenzidine (Sigma T0440). Stop solution is Sigma #CL07STOP solution (0.5M H₂SO₄). Buffers are: Coating buffer is PBS. Wash buffer is PBS-0.02% Tween20. Blocking buffer is PBS-0.02% Tween20 1% BSA. Protein diluent is PBS-0.02% Tween20 0.1% BSA. STOP solution is 0.5M H₂SO₄. Procedure: Immunocytokines and parental antibody are coated overnight at 4° C. The ELISA plates are washed 4 times with 100 μl PBS-0.02% Tween20. and blocked with PBS-1% BSA. A serial dilution of h-PD1 Fc is prepared and plates are incubated for two hours at 37° C., with shaking (600 rpm). ELISA plates are washed and incubated with Streptavidin-HRP 30 min at RT, with shaking (600 rpm). ELISA plates are washed and incubated with ready-to-use TMB solution. Reaction is stopped and plates are read by OD450 on an Enspire plate reader.

[8] = biological target: T2, Recombinant Human IL-7R alpha/CD127 Fc …; assay: BLI (Octet R8); CD127-Fc-Avi loaded on SAX2 sensor, immunocytokine as analyte
[9] = biological target: T3, Biotinylated Recombinant Human PD-1 …; assay: Direct huPD1 ELISA: immunocytokine coated on the plate, serial dilution of biotinylated human PD-1-Fc (x axis 'Biotin PD1 (nM)'), signal at 450 nm
Method: as §1, §2

[10] = biological target: T3, Biotinylated Recombinant Human PD-1 …; assay: ELISA: immunocytokine coated on the plate, serial dilution of biotinylated human PD-1-Fc, streptavidin-HRP, OD 450 nm (x axis printed as 'Molecule (nM)')
Method: as §1, §2

[11] = biological target: T2, Recombinant Human IL-7R alpha/CD127 Fc …; assay: BLI (Octet R8); CD127-Fc-Avi loaded on SAX2 sensor, immunocytokine as analyte; remark: listed apart in the source
[12] = biological target: T2, Recombinant Human IL-7R alpha/CD127 Fc …; assay: BLI (Octet R8); CD127-Fc-Avi loaded on SAX2 sensor, IL-7 polypeptide as analyte; remark: listed apart in the source

B1: CMP-108, synthetic IL-7 of SEQ ID NO: 3 with glutaryl-PEG9-azide at the N-terminus (ligand)
chain: {glutaryl‑PEG9‑azide}-DCDIEGKDGKQYESVL[Nle]VSIDQLLDS[Nle]KEIGSNCL[hSer]NEFNFFKRHICDANKEG[Nle]FLFRAARKLRQFLK[Nle]NSTGDF[hSer]LHLLKVSEGTTILLNCTGQVKGRKPAALGEAQPTKSL[hSer]ENKSLKEQKKLNDLCFLKRLLQEIKTCWNKIL[Nle]GTKEH-NH2
modifications: disulfide 34-129, 47-141, 2-92
notes: The suffix is not explained; also called synthetic IL-7, WT with an N-terminal conjugation handle
In the case of B1, the “EC50 pSTAT5, CD4 Memory” value [1] is reported as 6 pM, the “EC50 pSTAT5, CD4 Naive” value [1] is reported as 6 pM and the “EC50 pSTAT5, CD4 Treg” value [1] is reported as 20 pM. The “EC50 pSTAT5, CD8 Memory” value [1] was 8 pM, the “EC50 pSTAT5, CD8 Naive” value [1] was 8 pM and the Kd [2] was 0.254 nM. The koff [2] was 0.00167 s⁻¹, the kon [2] was 6.59e+06 M⁻¹ s⁻¹ and the Kd [3] was 2.75 nM. The koff [3] was 0.00901 s⁻¹ and the kon [3] was 3.28e+06 M⁻¹ s⁻¹.

B2: CMP-110, synthetic IL-7 G85N of SEQ ID NO: 7 with glutaryl-PEG9-azide at the N-terminus (ligand)
chain: {glutaryl‑PEG9‑azide}-DCDIEGKDGKQYESVL[Nle]VSIDQLLDS[Nle]KEIGSNCL[hSer]NEFNFFKRHICDANKEG[Nle]FLFRAARKLRQFLK[Nle]NSTGDF[hSer]LHLLKVSENTTILLNCTGQVKGRKPAALGEAQPTKSL[hSer]ENKSLKEQKKLNDLCFLKRLLQEIKTCWNKIL[Nle]GTKEH-NH2
modifications: disulfide 34-129, 47-141, 2-92
notes: The suffix is not explained; also called CMP-110-001
With B2 the “EC50 pSTAT5, CD4 Memory” value [1] was 30 pM, the “EC50 pSTAT5, CD4 Naive” value [1] was 30 pM and the “EC50 pSTAT5, CD4 Treg” value [1] was 67 nM. The “EC50 pSTAT5, CD8 Memory” value [1] was 80 pM, the “EC50 pSTAT5, CD8 Naive” value [1] was 50 pM and the koff [4] was 0.0225 s⁻¹. It also gave a kon [4] of 2.51e+06 M⁻¹ s⁻¹, a Kd [5] of 9.47 nM and a koff [5] of 0.0269 s⁻¹. It also gave a kon [5] of 2.84e+06 M⁻¹ s⁻¹.

B3: LZM-009 (antibody, V domains shown)
VH: QVQLVQSGAEVKKPGASVKVSCKASGYTFTSYYMYWVRQAPGQGLEWMGGVNPSNGGTNFNEKFKSRVTITADKSTSTAYMELSSLRSEDTAVYYCARRDYRYDMGFDYWGQGTTVTVSS
VL: EIVLTQSPATLSLSPGERATISCRASKGVSTSGYSYLHWYQQKPGQAPRLLIYLASYLESGVPARFSGSGSGTDFTLTISSLEPEDFATYYCQHSRELPLTFGTGTKVEIK
notes: It is a whole antibody with an Fc region (conjugated at K248)
B3 showed an EC50 [6] of 0.035 nM and an EC50 [7] of 0.035 nM.

B4: CMP-041, LZM-009 conjugated to synthetic IL-7 (WT) CMP-108, DAR 1, at K248 (other)
VH: B3 VH
VL: B3 VL
chain: DCDIEGKDGKQYESVLXVSIDQLLDSXKEIGSNCLXNEFNFFKRHICDANKEGXFLFRAARKLRQFLKXNSTGDFXLHLLKVSEGTTILLNCTGQVKGRKPAALGEAQPTKSLXENKSLKEQKKLNDLCFLKRLLQEIKTCWNKILXGTKEH
modifications: not fully specified; norleucine (Nle) at 17, 27, 54, 69, 147; homoserine (Hse) at 36, 76, 114; N-terminal glutaryl-PEG9-azide reacted with the DBCO linker on the antibody; K248 (EU numbering) of the Fc region carries the linker to IL-7 (DAR 1)
notes: Immunocytokine (chemical conjugate, not a fusion)
Binder B4 has a koff [8] of 0.00979 s⁻¹, a kon [8] of 2.95e+06 M⁻¹ s⁻¹ and an EC50 [9] of 0.0348 nM. For the same binder, the EC50 [10] was 0.0348 nM.

B5: CMP-116, LZM-009 conjugated to synthetic IL-7 (V15W) CMP-107, DAR 1, at K248 (other)
VH: B3 VH
VL: B3 VL
chain: B4 chain with V15W
modifications: not fully specified; norleucine (Nle) at 17, 27, 54, 69, 147; homoserine (Hse) at 36, 76, 114; N-terminal glutaryl-PEG9-azide reacted with the DBCO linker on the antibody; K248 (EU numbering) of the Fc region carries the linker to IL-7 (DAR 1)
notes: Immunocytokine (chemical conjugate)
Binder B5 has a koff [11] of 0.0473 s⁻¹, a kon [11] of 2.9e+06 M⁻¹ s⁻¹ and an EC50 [9] of 0.0341 nM.

B6: CMP-106, recombinant IL-7 V15W with His-tag (ligand)
chain: DCDIEGKDGKQYESWLMVSIDQLLDSMKEIGSNCLNNEFNFFKRHICDANKEGMFLFRAARKLRQFLKMNSTGDFDLHLLKVSEGTTILLNCTGQVKGRKPAALGEAQPTKSLEENKSLKEQKKLNDLCFLKRLLQEIKTCWNKILMGTKEHVDHHHHHH
notes: V15W is already in the entry, which also includes the C-terminal His-tag; also called IL-7 V15W (Recomb-HIS6)
With B6 the “EC50 pSTAT5, CD4 Memory” value [1] was 0.93 nM, the “EC50 pSTAT5, CD4 Naive” value [1] was 0.814 nM and the “EC50 pSTAT5, CD4 Treg” value [1] was 27.7 nM. For the same binder, the “EC50 pSTAT5, CD8 Memory” value [1] was 3.22 nM, the “EC50 pSTAT5, CD8 Naive” value [1] was 1.28 nM and the Kd [12] was 66.3 nM. For the same binder, the koff [12] was 0.0321 s⁻¹ and the kon [12] was 485000 M⁻¹ s⁻¹.
